How the values were obtained:
[1] = tested on: insulin-expressing cells of HILOs; test: Mitochondrial content (MitoTracker) and insulin-GFP by flow cytometry; assay type: cell-based, human
Source text: FIGS. 8A-8H provide images, graphs, a schematic and a diagram showing results related to WNT4 mediated insulin-GFP expression and WNT4-driven metabolic maturation. FIG. 8A presents representative images of mitochondrial content, indicated by MitoTracker (red) staining, in PBS and WNT4 treated HILOs (scale bar, 100 μm). FIG. 8B presents graphs of flow cytometry quantification of insulin expression (GFP) and mitochondrial content in HILOs treated with recombinant human WNT4 (rhWNT4), WNT5A (rhWNT5A), or conditioned medium (CM) from control or WNT5A overexpressing fibroblasts (n=3). Error bars represent SEM. *p<0.05. FIG. 8C presents a gene ontology of transcriptional changes induced by WNT4 treatment (100 ng/ml WNT4 from day26 to day33) in HILOs. […] Error bars represent SEM. *p<0.05. FIG. 8E presents a Venn diagram showing overlap between WNT4-induced increases in chromatin accessibility in GFP^+ cells and increases in HILO gene expression (upper panel), and gene ontology pathways enriched in the intersection gene set. […] For FIGS. 8G and 8H, postnatal islets (day P11-14) from WT and β cell specific ERRγKO mice were cultured with or without rhWNT4 (100 ng/ml) for >5 days.

[2] = tested on: ERRγ (ESRRG), mitochondrial and insulin gene expression; test: Quantitative RT-PCR gene expression in hiPSC-derived islet organoids/HILOs; assay type: cell-based, human; settings: hiPSC-derived islet organoids, MCS or HILOs
Method: hiPSCs were cultured in matrigel-coated plates. Single cell suspensions were prepared using Accutase, washed in PBS, and collected by centrifugation (1000-1300 rpm for 5 min). Cells were re-suspended with 3D Kelco Gel Stem TeSR™ Base Medium in the presence of the ROCK inhibitor (10 μM Y-27632, StemCell) for 5 to 7 days until spheroids reached 50-100 μm diameter. The medium was then replaced with 0.015% Kelco gel containing 0.3% methylcellulose and supplemented with 100 ng/ml human Activin A (R&D Systems), 3 μM CHIR99021 (Axon or Selleckchem) in differentiation medium (S1) for 1 day, and then 100 ng/ml human Activin in differentiation medium (S1) for another 2 days (Stage 1, Definitive Endoderm). Subsequently, the medium was replaced with differentiation medium (S2) with 50 ng/ml FGF7 (R&D Systems) for 2 days, differentiation medium (S3) with 50 ng/ml FGF7, 0.25 μM SANT-1 (Sigma), 1 μM Retinoic Acid (Sigma), 100 nM LDN193189, 10 μM Alk5 inhibitor II and 200 nM of the ß-Amyloid Precursor Protein modulator TPB for 3 days, then 50 ng/ml FGF7, 0.25 μM SANT-1 (Sigma), 1 μM Retinoic Acid (Sigma), 100 nM LDN193189, 10 μM Alk5 inhibitor II and 100 nM of the ß-Amyloid Precursor Protein modulator TPB for 2 days. Subsequently the medium was replaced with differentiation medium (S4) with 0.25 μM SANT-1, 50 nM retinoic acid, 100 nM LDN193189, 10 μM Alk5 inhibitor II, 1 μM T3 for 3 days. Subsequently, the medium was replaced with differentiation medium (S5) with 100 nM LDN193189, 100 nM […] inhibitor XX (GSiXX, Millipore), 10 μM Alk5 inhibitor IL, 1 μM T3 for 7 days. Subsequently, the medium was replaced with differentiation media (S5) with 10 μM Trolox (Calbiochem), 2 μM R428 (Selleckchem), 1 mM N-acetyl cysteine, 10 μM Alk5 inhibitor II, 1 μM T3 for an additional 7 to 20 days. […]
Total RNA was extracted using TRIzol reagent (Invitrogen) and RNeasy KIT (Qiagen). […] Real time quantitative RT-PCR (qPCR) was performed using SYBR Green (Bio-Rad).

B1: WNT5a: recombinant human Wnt5a protein (protein, UniProt P41221 62-380, looked up)
Protein Wnt-5a: IIGAQPLCSQLAGLSQGQKKLCHLYQDHMQYIGEGAKTGIKECQYQFRHRRWNCSTVDNTSVFGRVMQIGSRETAFTYAVSAAGVVNAMSRACREGELSTCGCSRAARPKDLPRDWLWGGCGDNIDYGYRFAKEFVDARERERIHAKGSYESARILMNLHNNEAGRRTVYNLADVACKCHGVSGSCSLKTCWLQLADFRKVGDALKEKYDSAAAMRLNSRGKLVQVNSRFNSPTTQDLVYIDPSPDYCVRNESTGSLGTQGRLCNKTSEGMDGCELMCCGRGYDQFKTVQTERCHCKFHWCCYVKCKKCTEIVDQFVCK
[1]; GFP sorting, HILOs with and without WNT treatment
  proportion of insulin expressing cells: not affected
[1]; MitoTracker, HILOs / insulin-expressing cells
  mitochondrial content / number: increased the mitochondrial content
[2]
  expression of ERRγ (ESRRG) and mitochondrial genes: induced

— US12637662B2, “Cells, islets, and organoids that evade immune detection and autoimmunity, methods of production and use thereof” (SALK INSTITUTE FOR BIOLOGICAL STUDIES, priority 2018, dated 2026)
